We go through five molecules from paper PMC6468306 (Nucleic Acids Research, 2019).

Read-outs that look alike come from different tables or passages of the source.

Assay [1] deals with T1, ubiquitin (Ub) (mouse, UniProt P0CG49 1-76). Briefly: pull-down.
The target in assay [2] is T1, ubiquitin (Ub). Nature of the assay: SPR. A general note: In SPR one partner is held on a chip, and binding of the other changes the refractive index at the surface.
Assay [3] concerns the target T1, ubiquitin (Ub). Briefly: SPR. This is another data set of the same source.
Assay [4] deals with M1-linked diUb (M1-Ub2) (human, UniProt P0CG47). Briefly: pull-down.
In assay [5] the target is K48-Ub2 synthesized from K48R Ub and D77 Ub (for crystallization) (mouse, UniProt P0CG49, K48R | D77). Nature of the assay: crystal structure.

B1: GST-fused CSB C-terminal region (residues 1386-1493) (domain or fragment)
chain: SSSLLAKMRARNHLILPERLESESGHLQEASALLPTTEHDDLLVEMRNFIAFQAHTDGQASTREILQEFESKLSASQSCVFRELLRNLCTFHRTSGGEGIWKLKPEYC
Consider B1, for which the binding result in assay [1] is reported as “binds”.

B2: GST-fused CSB WHD (residues 1401-1493), wild type (domain or fragment)
chain: LPERLESESGHLQEASALLPTTEHDDLLVEMRNFIAFQAHTDGQASTREILQEFESKLSASQSCVFRELLRNLCTFHRTSGGEGIWKLKPEYC
By Kd is commonly meant the constant that tells how readily two partners part at equilibrium. Turning to B2, the dissociation constant Kd in assay [2] stood at 36.1 µM; in assay [3] it was 35.6 µM. In addition, the binding result in assay [4] is on record as “binds”.

B3: GST-fused CSB WHD, Q1413R variant allele (domain or fragment)
chain: LPERLESESGHLREASALLPTTEHDDLLVEMRNFIAFQAHTDGQASTREILQEFESKLSASQSCVFRELLRNLCTFHRTSGGEGIWKLKPEYC
In assay [3], B3 gave a Kd of 51.5 µM.

B4: CSB WHD (residues 1401-1493) with the Q1413R variant allele, GST cleaved (domain or fragment)
chain: LPERLESESGHLREASALLPTTEHDDLLVEMRNFIAFQAHTDGQASTREILQEFESKLSASQSCVFRELLRNLCTFHRTSGGEGIWKLKPEYC
B4: the binding result in assay [5] is “binds”.

B5: GST-fused CSB C-terminal region (residues 1412-1493) (domain or fragment)
chain: LQEASALLPTTEHDDLLVEMRNFIAFQAHTDGQASTREILQEFESKLSASQSCVFRELLRNLCTFHRTSGGEGIWKLKPEYC
With B5, the binding result in assay [1] is “binds”.
